The experiment addresses human PDL1 stably expressed on CHO cells (human) (UniProt Q9NZQ7).

Among the data in US20250320297A1 are EC50; NFAT luciferase reporter (RLU), CHO cells with human PDL1 co-incubated with Jurkat cells with human PD1 and NFAT reporter, blocking of PDL1/PD1 values, retold here.

human PDL1 stably expressed on CHO cells (human), sequence (Q9NZQ7 19-290 limits assumed): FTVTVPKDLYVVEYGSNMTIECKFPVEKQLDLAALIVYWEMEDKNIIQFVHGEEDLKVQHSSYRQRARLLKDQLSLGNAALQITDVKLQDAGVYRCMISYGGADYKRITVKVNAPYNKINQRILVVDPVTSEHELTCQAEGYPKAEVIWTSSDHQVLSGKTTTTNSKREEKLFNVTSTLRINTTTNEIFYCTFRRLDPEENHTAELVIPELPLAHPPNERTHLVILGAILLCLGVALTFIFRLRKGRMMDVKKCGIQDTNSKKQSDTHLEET

On to “Reference Ab 1 (analog of MPDL3280A) (antibody)”, for which the EC50; NFAT luciferase reporter (RLU), CHO cells with human PDL1 co-incubated with Jurkat cells with human PD1 and NFAT reporter, blocking of PDL1/PD1 turned out to be 53.2 pM.
